Experimental data taken from PMC6994035.

Key:
Test in all cases: EMSA
MBD-YFP (MBD of Mecp2) = MBD-YFP (MBD of Mecp2) (UniProt Q9Z2D6 77-167)
mcherry-Tet1CD = mcherry-Tet1CD (UniProt Q3URK3 1367-2039)
Mbd4-Strep = Mbd4-Strep (UniProt Q9Z2D7 1-554)

Measured: binding result

Sequence of MBD-YFP (MBD of Mecp2) (Q9Z2D6 77-167): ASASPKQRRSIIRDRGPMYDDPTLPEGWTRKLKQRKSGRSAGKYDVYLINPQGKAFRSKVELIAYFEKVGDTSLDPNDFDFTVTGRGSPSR
Sequence of mcherry-Tet1CD (Q3URK3 1367-2039): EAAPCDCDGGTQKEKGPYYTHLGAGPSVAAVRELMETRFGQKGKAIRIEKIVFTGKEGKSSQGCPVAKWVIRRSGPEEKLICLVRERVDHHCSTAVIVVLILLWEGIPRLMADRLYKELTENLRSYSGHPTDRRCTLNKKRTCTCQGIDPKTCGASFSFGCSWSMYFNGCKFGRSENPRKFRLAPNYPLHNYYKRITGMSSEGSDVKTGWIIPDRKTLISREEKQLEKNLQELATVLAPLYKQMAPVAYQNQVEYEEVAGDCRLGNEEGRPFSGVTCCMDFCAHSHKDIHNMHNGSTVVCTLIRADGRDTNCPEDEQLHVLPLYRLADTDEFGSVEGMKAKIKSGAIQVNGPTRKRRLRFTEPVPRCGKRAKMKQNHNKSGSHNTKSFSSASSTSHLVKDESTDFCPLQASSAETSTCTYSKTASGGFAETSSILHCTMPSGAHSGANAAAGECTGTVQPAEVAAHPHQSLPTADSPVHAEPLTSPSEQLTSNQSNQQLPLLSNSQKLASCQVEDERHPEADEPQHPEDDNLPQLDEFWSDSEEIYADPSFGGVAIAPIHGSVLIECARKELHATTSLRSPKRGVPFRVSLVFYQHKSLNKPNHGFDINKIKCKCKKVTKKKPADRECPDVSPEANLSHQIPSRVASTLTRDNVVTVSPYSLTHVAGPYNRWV
Sequence of Mbd4-Strep (Q9Z2D7 whole entry): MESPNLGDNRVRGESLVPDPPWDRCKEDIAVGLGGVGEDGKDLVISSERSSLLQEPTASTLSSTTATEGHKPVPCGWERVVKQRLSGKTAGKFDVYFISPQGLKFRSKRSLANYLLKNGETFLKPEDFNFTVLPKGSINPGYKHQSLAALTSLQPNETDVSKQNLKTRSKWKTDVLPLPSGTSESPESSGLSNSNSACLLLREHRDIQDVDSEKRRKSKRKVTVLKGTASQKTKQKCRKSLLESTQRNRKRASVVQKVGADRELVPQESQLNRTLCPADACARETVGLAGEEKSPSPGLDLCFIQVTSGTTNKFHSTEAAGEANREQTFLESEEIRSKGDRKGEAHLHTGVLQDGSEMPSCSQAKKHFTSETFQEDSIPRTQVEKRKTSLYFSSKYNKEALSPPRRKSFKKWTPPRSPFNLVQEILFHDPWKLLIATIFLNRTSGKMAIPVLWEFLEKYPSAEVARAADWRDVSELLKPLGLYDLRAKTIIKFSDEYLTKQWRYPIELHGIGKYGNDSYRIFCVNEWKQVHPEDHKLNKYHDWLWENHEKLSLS

B1: mC:mC fully methylated CpG 42-mer (dsDNA)
DNA 1: CTCAACAACTAACTACCATCCGGACCAGAAGAGTCATCATGG
DNA 2: CCATGATGACTCTTCTGGTCCGGATGGTAGTTAGTTGTTGAG
modifications: 5mC at position 21 of both strands
binds: all assays above
